The values that follow are results of earlier work, collected in publication PMC7380111.

As a reminder, the pKd is the negative decadic logarithm of the Kd, by convention in mol/L.

One data set has as its target NRP2 (Homo sapiens) (UniProt O60462).
In a further data set the target is NRP1 (Homo sapiens) (UniProt O14786).

pKd: −log10 of the molar value.

Chain of UniProt O14786 (O14786 22-923): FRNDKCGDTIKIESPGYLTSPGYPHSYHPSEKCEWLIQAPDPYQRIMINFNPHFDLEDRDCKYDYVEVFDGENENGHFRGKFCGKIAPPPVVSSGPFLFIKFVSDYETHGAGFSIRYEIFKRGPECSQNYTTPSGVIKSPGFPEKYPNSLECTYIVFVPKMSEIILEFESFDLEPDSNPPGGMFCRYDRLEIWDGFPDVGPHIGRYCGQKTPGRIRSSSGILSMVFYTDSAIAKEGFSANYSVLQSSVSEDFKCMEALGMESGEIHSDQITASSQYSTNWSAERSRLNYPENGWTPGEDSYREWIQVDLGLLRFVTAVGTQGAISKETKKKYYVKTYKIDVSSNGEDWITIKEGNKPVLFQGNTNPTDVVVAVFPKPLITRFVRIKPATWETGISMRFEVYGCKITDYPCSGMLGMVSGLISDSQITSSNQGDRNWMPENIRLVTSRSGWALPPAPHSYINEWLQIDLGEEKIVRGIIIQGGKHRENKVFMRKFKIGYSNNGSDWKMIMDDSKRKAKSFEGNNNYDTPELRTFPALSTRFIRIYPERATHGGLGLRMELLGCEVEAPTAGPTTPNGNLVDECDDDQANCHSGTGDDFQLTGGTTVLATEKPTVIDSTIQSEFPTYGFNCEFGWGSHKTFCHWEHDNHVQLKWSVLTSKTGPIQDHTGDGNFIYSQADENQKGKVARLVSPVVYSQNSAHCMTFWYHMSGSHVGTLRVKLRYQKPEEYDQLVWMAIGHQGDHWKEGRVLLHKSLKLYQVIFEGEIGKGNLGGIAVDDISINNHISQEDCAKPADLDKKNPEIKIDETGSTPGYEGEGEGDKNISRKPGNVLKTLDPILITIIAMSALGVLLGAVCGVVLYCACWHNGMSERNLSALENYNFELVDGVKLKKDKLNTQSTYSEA
Chain of UniProt O60462 (O60462 21-931): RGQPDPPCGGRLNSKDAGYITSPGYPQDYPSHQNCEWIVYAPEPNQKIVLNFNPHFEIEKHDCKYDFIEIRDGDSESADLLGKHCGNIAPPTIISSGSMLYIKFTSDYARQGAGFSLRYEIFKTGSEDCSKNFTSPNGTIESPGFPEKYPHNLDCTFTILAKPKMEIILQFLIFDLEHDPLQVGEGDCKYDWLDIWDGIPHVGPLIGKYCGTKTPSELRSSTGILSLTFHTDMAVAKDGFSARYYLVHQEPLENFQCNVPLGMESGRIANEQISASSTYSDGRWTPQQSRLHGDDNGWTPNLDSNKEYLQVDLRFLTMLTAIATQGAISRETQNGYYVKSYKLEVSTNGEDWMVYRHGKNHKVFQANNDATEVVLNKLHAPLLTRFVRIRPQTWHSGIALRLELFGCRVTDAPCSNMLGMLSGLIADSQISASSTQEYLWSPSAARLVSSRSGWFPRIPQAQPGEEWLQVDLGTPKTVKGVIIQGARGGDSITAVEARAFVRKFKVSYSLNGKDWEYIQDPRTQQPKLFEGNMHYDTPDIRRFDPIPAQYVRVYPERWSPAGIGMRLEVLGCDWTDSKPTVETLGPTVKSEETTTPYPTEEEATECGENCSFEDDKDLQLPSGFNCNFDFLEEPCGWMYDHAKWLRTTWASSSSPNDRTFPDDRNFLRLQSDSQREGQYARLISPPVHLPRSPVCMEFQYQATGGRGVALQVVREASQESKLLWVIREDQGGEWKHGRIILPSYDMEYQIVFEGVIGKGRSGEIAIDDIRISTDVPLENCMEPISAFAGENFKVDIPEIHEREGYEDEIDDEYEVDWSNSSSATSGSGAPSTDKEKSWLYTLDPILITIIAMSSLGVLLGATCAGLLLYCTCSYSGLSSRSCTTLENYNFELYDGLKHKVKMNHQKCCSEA

On to VEGF165 (from UniProt P15692), for which the results for the pKd with NRP2 (Homo sapiens) and with NRP1 (Homo sapiens) were 8.30 and 9.70, respectively.
